The values below come from patent US20220333113.

The target in data set [1] is T1, RIG-I WT full-length (Homo sapiens) (UniProt O95786).
T1 sequence: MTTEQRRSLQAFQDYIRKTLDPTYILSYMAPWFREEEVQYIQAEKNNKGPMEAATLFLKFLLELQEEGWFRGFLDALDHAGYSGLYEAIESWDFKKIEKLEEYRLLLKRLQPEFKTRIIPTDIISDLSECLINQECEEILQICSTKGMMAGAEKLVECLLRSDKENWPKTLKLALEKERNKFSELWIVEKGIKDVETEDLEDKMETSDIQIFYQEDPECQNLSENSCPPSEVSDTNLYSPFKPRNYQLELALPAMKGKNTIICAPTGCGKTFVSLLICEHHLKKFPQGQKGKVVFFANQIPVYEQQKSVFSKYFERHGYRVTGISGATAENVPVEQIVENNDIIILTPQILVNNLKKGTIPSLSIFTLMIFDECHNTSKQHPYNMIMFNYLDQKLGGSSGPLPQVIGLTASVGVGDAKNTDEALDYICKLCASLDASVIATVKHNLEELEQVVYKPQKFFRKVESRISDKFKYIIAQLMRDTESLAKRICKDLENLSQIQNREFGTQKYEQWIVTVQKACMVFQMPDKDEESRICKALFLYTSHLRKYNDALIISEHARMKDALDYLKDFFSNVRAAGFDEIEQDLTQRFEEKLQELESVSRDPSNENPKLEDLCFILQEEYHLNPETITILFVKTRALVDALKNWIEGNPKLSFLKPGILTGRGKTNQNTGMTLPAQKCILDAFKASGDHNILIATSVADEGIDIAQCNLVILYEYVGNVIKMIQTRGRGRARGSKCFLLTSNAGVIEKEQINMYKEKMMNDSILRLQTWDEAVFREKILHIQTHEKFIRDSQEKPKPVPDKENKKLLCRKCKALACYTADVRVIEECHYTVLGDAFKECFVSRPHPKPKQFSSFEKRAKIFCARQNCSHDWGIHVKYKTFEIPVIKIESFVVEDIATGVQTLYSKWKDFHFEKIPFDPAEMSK
Kind of data set: filter. As to conditions: J = PPdU at every J; SB18T0.01 + 1 mM DTT, 37 C.

The target of data set [2] is T2, RIG-I K858A (Homo sapiens) (UniProt O95786).
T2 sequence: T1 sequence with K858A
Put plainly: filter. The settings on record: J = PPdU at every J; SB18T0.01 + 1 mM DTT, 37 C.

Data set [3] concerns the target T3, RIG-I R664A (Homo sapiens) (UniProt O95786).
T3 sequence: T1 sequence with R664A
Put plainly: filter. The settings on record: J = PPdU at every J; SB18T0.01 + 1 mM DTT, 37 C.

Data set [4] addresses T4, RIG-I CTD (aa 792-925) (Homo sapiens) (UniProt O95786).
T4 sequence: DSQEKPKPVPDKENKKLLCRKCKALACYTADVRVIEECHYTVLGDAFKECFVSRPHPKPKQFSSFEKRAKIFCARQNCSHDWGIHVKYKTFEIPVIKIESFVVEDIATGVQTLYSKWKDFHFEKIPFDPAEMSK
Put plainly: EMSA. As to conditions: J = PPdU at every J; SB18T0.01 + 20% glycerol, 1 mM DTT, 37 C.

Numbering of substitutions follows the chain as printed.

Turning to “ATCTCTGTGTCATGTGTTTTAATGTCAGTTTAATGATGAGG [14832-55_8]”, the Kd in data set [1] came out at 560 pM; in data set [2] it was 2900 pM; in data set [3], 410 pM; in data set [4], 19 pM.
